In patent US20230212587A1, “Mutant Hydroxyphenylpyruvate Dioxygenase Polypeptide, Encoding Gene Thereof and Use Therefor” (Beijing Dabeinong Biotechnology Co., Ltd., priority 2019, published 2023):

Test system: Arabidopsis thaliana T1 plants
Experiment: Topramezone tolerance of transgenic Arabidopsis thaliana T1 plants (pesticide damage grade by bleached leaf area, score, resistance evaluation)
Type: in vivo
Parameters: score: scale not given here
Conditions: for Resistance evaluation / Scores / Classification and statistics of pesticide damage grade: Grade 0 / Classification and statistics of pesticide damage grade: Grade 1 / Classification and statistics of pesticide damage grade: Grade 2 / Classification and statistics of pesticide damage grade: Grade 3: HPPDs from ecotypes of Triticum aestivum; for Classification and statistics of pesticide damage grade: Grade 0 / Classification and statistics of pesticide damage grade: Grade 1 / Classification and statistics of pesticide damage grade: Grade 2 / Classification and statistics of pesticide damage grade: Grade 3 / Grade 0 / Grade 1 / Grade 2 / Grade 3: number of plants; for Resistance Grade / score / Grade 0 / Grade 1 / Grade 2 / Grade 3: HPPD from Avena sativa source
Procedure, shortened: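 Eighteen days after sowing, wild-type and HPPD-transgenic T1 Arabidopsis receive a topramezone spray at 1×, 2× or 4× field rate (25–100 g ai/ha) or water. Seven days later each plant is graded by its proportion of bleached leaf area.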

Molecule	Resistance Grade (topramezone 25 g ai/ha (1x))	score (topramezone 25 g ai/ha (1x))	Grade 0 (topramezone 25 g ai/ha (1x))	Grade 1 (topramezone 25 g ai/ha (1x))	Grade 2 (topramezone 25 g ai/ha (1x))	Grade 3 (topramezone 25 g ai/ha (1x))	Resistance Grade (topramezone 50 g ai/ha (2x))	score (topramezone 50 g ai/ha (2x))	Grade 0 (topramezone 50 g ai/ha (2x))	Grade 1 (topramezone 50 g ai/ha (2x))	Grade 2 (topramezone 50 g ai/ha (2x))	Grade 3 (topramezone 50 g ai/ha (2x))	Resistance Grade (topramezone 100 g ai/ha (4x))	score (topramezone 100 g ai/ha (4x))	Grade 0 (topramezone 100 g ai/ha (4x))	Grade 1 (topramezone 100 g ai/ha (4x))	Grade 2 (topramezone 100 g ai/ha (4x))	Grade 3 (topramezone 100 g ai/ha (4x))	further results
TaHPPD7-02: native HPPD of Triticum aestivum ecotype 7, UniProt A7WK82, SEQ ID NO: 213 (protein, listed as Triticum aestivum, TaHPPD7 Amino Acid Sequence) MPPTPTTPAATGAAAAAAVTPEHARPRRMVRFNPRSDRFHTLAFHHVEFWCADAASAAGRFAFALGAPLAARSDLSTGNSVHASQLLRSGNLAFLFTAPYANGCDAATASLPSFSADAARRFSADHGLAVRSIALRVADAAEAFRASVDGGARPAFSPVDLGRGFGFAEVELYGDVVLRFVSHPDGTDVPFLPGFEGVSNPDAVDYGLTRFDHVVGNVPELAPAAAYVAGFTGFHEFAEFTTEDVGTAESGLNSMVLANNSEGVLLPLNEPVHGTKRRSQIQTFLEHHGGPGVQHIAVASSDVLRTLREMRARSAMGGFDFLPPPLPKYYEGVRRIAGDVLSEAQIKECQELGVLVDRDDQGVLLQIFTKPVGDRPTCSWR																			Resistance evaluation (topramezone 25 g ai/ha (1x)): non-resistant (non-resistant plants (scores 68-100)); Scores (topramezone 25 g ai/ha (1x)): 100; Classification and statistics of pesticide damage grade: Grade 0 (topramezone 25 g ai/ha (1x)): 0; Classification and statistics of pesticide damage grade: Grade 1 (topramezone 25 g ai/ha (1x)): 0; Classification and statistics of pesticide damage grade: Grade 2 (topramezone 25 g ai/ha (1x)): 0; Classification and statistics of pesticide damage grade: Grade 3 (topramezone 25 g ai/ha (1x)): 16; Resistance evaluation (topramezone 100 g ai/ha (4x)): non-resistant (non-resistant plants (scores 68-100)); Scores (topramezone 100 g ai/ha (4x)): 100; Classification and statistics of pesticide damage grade: Grade 0 (topramezone 100 g ai/ha (4x)): 0; Classification and statistics of pesticide damage grade: Grade 1 (topramezone 100 g ai/ha (4x)): 0; Classification and statistics of pesticide damage grade: Grade 2 (topramezone 100 g ai/ha (4x)): 0; Classification and statistics of pesticide damage grade: Grade 3 (topramezone 100 g ai/ha (4x)): 16
TaHPPD7m-F372A-02: Triticum aestivum ecotype 7 HPPD mutant F372A, SEQ ID NO: 216 (protein, TaHPPD7m-F372A Amino Acid Sequence) MPPTPTTPAATGAAAAAAVTPEHARPRRMVRFNPRSDRFHTLAFHHVEFWCADAASAAGRFAFALGAPLAARSDLSTGNSVHASQLLRSGNLAFLFTAPYANGCDAATASLPSFSADAARRFSADHGLAVRSIALRVADAAEAFRASVDGGARPAFSPVDLGRGFGFAEVELYGDVVLRFVSHPDGTDVPFLPGFEGVSNPDAVDYGLTRFDHVVGNVPELAPAAAYVAGFTGFHEFAEFTTEDVGTAESGLNSMVLANNSEGVLLPLNEPVHGTKRRSQIQTFLEHHGGPGVQHIAVASSDVLRTLREMRARSAMGGFDFLPPPLPKYYEGVRRIAGDVLSEAQIKECQELGVLVDRDDQGVLLQIATKPVGDRPTCSWR																			Resistance evaluation (topramezone 25 g ai/ha (1x)): highly resistant (highly resistant plants (scores 0-15)); Scores (topramezone 25 g ai/ha (1x)): 8; Classification and statistics of pesticide damage grade: Grade 0 (topramezone 25 g ai/ha (1x)): 12; Classification and statistics of pesticide damage grade: Grade 1 (topramezone 25 g ai/ha (1x)): 4; Classification and statistics of pesticide damage grade: Grade 2 (topramezone 25 g ai/ha (1x)): 0; Classification and statistics of pesticide damage grade: Grade 3 (topramezone 25 g ai/ha (1x)): 0; Resistance evaluation (topramezone 100 g ai/ha (4x)): moderately resistant (moderately resistant plants (scores 16-33)); Scores (topramezone 100 g ai/ha (4x)): 21; Classification and statistics of pesticide damage grade: Grade 0 (topramezone 100 g ai/ha (4x)): 6; Classification and statistics of pesticide damage grade: Grade 1 (topramezone 100 g ai/ha (4x)): 10; Classification and statistics of pesticide damage grade: Grade 2 (topramezone 100 g ai/ha (4x)): 0; Classification and statistics of pesticide damage grade: Grade 3 (topramezone 100 g ai/ha (4x)): 0
F372L (protein, listed as Avena sativa, AsHPPD Amido Acid Sequence) MPPTPATATGAAAAAVTPEHAARSFPRVVRVNPRSDRFPVLSFHHVELWCADAASAAGRFSFALGAPLAARSDLSTGNSAHASLLLRSGALAFLFTAPYAPPPQEAATAAATASIPSFSADAARTFAAAHGLAVRSVGVRVADAAEAFRVSVAGGARPAFAPADLGHGFGLAEVELYGDVVLRFVSYPDETDLPFLPGFERVSSPGAVDYGLTRFDHVVGNVPEMAPVIDYMKGFLGFHEFAEFTAEDVGTTESGLNSVVLANNSEAVLLPLNEPVHGTKRRSQIQTYLEYHGGPGVQHIALASNDVLRTLREMRARTPMGGFEFMAPPQAKYYEGVRRIAGDVLSEEQIKECQELGVLVDRDDQGVLLQILTKPVGDRPTFFLEMIQRIGCMEKDEVGQEYQKGGCGGFGKGNFSELFKSIEDYEKSLEVKQSVVAQKS	Highly resistant	0	20	0	0	0	Highly resistant	0	20	0	0	0	Moderately resistant	30	6	10	4	0	
F372W (protein, listed as Avena sativa, AsHPPD Amido Acid Sequence) MPPTPATATGAAAAAVTPEHAARSFPRVVRVNPRSDRFPVLSFHHVELWCADAASAAGRFSFALGAPLAARSDLSTGNSAHASLLLRSGALAFLFTAPYAPPPQEAATAAATASIPSFSADAARTFAAAHGLAVRSVGVRVADAAEAFRVSVAGGARPAFAPADLGHGFGLAEVELYGDVVLRFVSYPDETDLPFLPGFERVSSPGAVDYGLTRFDHVVGNVPEMAPVIDYMKGFLGFHEFAEFTAEDVGTTESGLNSVVLANNSEAVLLPLNEPVHGTKRRSQIQTYLEYHGGPGVQHIALASNDVLRTLREMRARTPMGGFEFMAPPQAKYYEGVRRIAGDVLSEEQIKECQELGVLVDRDDQGVLLQIWTKPVGDRPTFFLEMIQRIGCMEKDEVGQEYQKGGCGGFGKGNFSELFKSIEDYEKSLEVKQSVVAQKS	Poorly resistant	37	6	6	8	0	Non-resistant	100	0	0	0	20	Non-resistant	100	0	0	0	20	
F372S (protein, listed as Avena sativa, AsHPPD Amido Acid Sequence) MPPTPATATGAAAAAVTPEHAARSFPRVVRVNPRSDRFPVLSFHHVELWCADAASAAGRFSFALGAPLAARSDLSTGNSAHASLLLRSGALAFLFTAPYAPPPQEAATAAATASIPSFSADAARTFAAAHGLAVRSVGVRVADAAEAFRVSVAGGARPAFAPADLGHGFGLAEVELYGDVVLRFVSYPDETDLPFLPGFERVSSPGAVDYGLTRFDHVVGNVPEMAPVIDYMKGFLGFHEFAEFTAEDVGTTESGLNSVVLANNSEAVLLPLNEPVHGTKRRSQIQTYLEYHGGPGVQHIALASNDVLRTLREMRARTPMGGFEFMAPPQAKYYEGVRRIAGDVLSEEQIKECQELGVLVDRDDQGVLLQISTKPVGDRPTFFLEMIQRIGCMEKDEVGQEYQKGGCGGFGKGNFSELFKSIEDYEKSLEVKQSVVAQKS	Highly resistant	0	20	0	0	0	Highly resistant	0	20	0	0	0	Highly resistant	0	20	0	0	0	
F372P (protein, listed as Avena sativa, AsHPPD Amido Acid Sequence) MPPTPATATGAAAAAVTPEHAARSFPRVVRVNPRSDRFPVLSFHHVELWCADAASAAGRFSFALGAPLAARSDLSTGNSAHASLLLRSGALAFLFTAPYAPPPQEAATAAATASIPSFSADAARTFAAAHGLAVRSVGVRVADAAEAFRVSVAGGARPAFAPADLGHGFGLAEVELYGDVVLRFVSYPDETDLPFLPGFERVSSPGAVDYGLTRFDHVVGNVPEMAPVIDYMKGFLGFHEFAEFTAEDVGTTESGLNSVVLANNSEAVLLPLNEPVHGTKRRSQIQTYLEYHGGPGVQHIALASNDVLRTLREMRARTPMGGFEFMAPPQAKYYEGVRRIAGDVLSEEQIKECQELGVLVDRDDQGVLLQIPTKPVGDRPTFFLEMIQRIGCMEKDEVGQEYQKGGCGGFGKGNFSELFKSIEDYEKSLEVKQSVVAQKS	Highly resistant	0	20	0	0	0	Highly resistant	0	20	0	0	0	Moderately resistant	33	4	12	4	0	
F372T (protein, listed as Avena sativa, AsHPPD Amido Acid Sequence) MPPTPATATGAAAAAVTPEHAARSFPRVVRVNPRSDRFPVLSFHHVELWCADAASAAGRFSFALGAPLAARSDLSTGNSAHASLLLRSGALAFLFTAPYAPPPQEAATAAATASIPSFSADAARTFAAAHGLAVRSVGVRVADAAEAFRVSVAGGARPAFAPADLGHGFGLAEVELYGDVVLRFVSYPDETDLPFLPGFERVSSPGAVDYGLTRFDHVVGNVPEMAPVIDYMKGFLGFHEFAEFTAEDVGTTESGLNSVVLANNSEAVLLPLNEPVHGTKRRSQIQTYLEYHGGPGVQHIALASNDVLRTLREMRARTPMGGFEFMAPPQAKYYEGVRRIAGDVLSEEQIKECQELGVLVDRDDQGVLLQITTKPVGDRPTFFLEMIQRIGCMEKDEVGQEYQKGGCGGFGKGNFSELFKSIEDYEKSLEVKQSVVAQKS	Highly resistant	0	20	0	0	0	Highly resistant	3	18	2	0	0	Moderately resistant	17	10	10	0	0	
